From paper PMC6819594, “Screening antiproliferative drug for breast cancer from bisbenzylisoquinoline alkaloid tetrandrine and fangchinoline derivatives by targeting BLM helicase” (BMC Cancer, 2019)

Target: BLM642-1290 helicase (UniProt P54132 642-1290)
Assay: fluorescence anisotropy; mitomycin C (no significant effect); 20 mM Tris pH 7.9, 25 mM NaCl, 3 mM MgCl2, 0.1 mM DTT; EMSA at room temperature 45 min; FP temperature not stated
Conditions: protein: recombinant; label: 3' fluorescein (FAM) on strand 2; 3' overhang 24 nt on strand 1; 21 bp duplex

BLM642-1290 helicase, sequence (P54132 642-1290): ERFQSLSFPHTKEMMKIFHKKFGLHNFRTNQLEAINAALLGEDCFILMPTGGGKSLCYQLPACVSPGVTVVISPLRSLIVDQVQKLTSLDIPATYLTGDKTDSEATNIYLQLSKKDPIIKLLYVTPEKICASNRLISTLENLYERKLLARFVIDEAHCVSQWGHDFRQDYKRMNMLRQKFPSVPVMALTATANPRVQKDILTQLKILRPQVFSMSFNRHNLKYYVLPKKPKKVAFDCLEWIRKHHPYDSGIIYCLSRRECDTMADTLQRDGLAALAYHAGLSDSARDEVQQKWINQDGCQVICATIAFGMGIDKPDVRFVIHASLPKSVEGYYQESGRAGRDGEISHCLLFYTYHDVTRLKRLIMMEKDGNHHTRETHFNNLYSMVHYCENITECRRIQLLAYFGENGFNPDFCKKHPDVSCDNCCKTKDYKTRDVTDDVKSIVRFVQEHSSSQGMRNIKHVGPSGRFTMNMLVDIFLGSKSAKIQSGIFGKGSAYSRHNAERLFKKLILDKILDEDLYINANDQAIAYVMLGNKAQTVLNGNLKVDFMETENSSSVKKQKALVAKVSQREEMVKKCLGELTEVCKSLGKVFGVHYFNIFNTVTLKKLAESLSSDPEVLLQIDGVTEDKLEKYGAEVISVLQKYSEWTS

B1: dsDNA A1A2 (dsDNA)
DNA 1: AATCCGTCGAGCAGAGTTAGGTTAGGTTAGGTTAGTTTTTTTTTT
DNA 2: CCTAACTCTGCTCGACGGATT
binding result: binds
